From a protein production outcome set (Wang et al. 2014)

Experiment: label from the status in PepcDB records

For “MAGGHCGSFAAAAASSGEIVQLNVGGTRFSTSRQTLMWIPDSFFSSLLSGRISTLRDETGAIFIDRDPAAFAPILNFLRTKELDLRGVSINVLRHEAEFYGITPLVRRLLLCEELERSSCGSVLFHGYLPPPGIPSRKGTNTARSSVDARNGLSSMEGEARGSGTQPVLAGNGEDTIRLVDKLSVESWPVGVPVDPRKVLIVAGHHNWIVAAYAHFAVCYRIKESSGWQQVFTSPYLDWTIERVALNAKVVGGPHGDKDKMVAVASESSIILWSVQDGGSGSEIGVFSLGVPVDALFFIGNQLVATSHTGKVGVWNAVTQHWQVQDVVPITSYDTAGSFLLLGCNNGSIYYIDMQKFPLRMKDNDLLVTELYHDPSNDAITALSVYLTPKTSVSGNWIEIAYGTSSGAVRVIVQHPETVGSGPQLFQTFTVHRSPVTKIMLSEKHLVSVCADNNHVRTWTVTRFRGMISTQPGSTPLASFKILSLKRQRATAAIPLEMTSGLLENEMINKCLSRRLFPSPTSCLSGCHRLEKGYVRSRLWTALQSPRSLXESARAPAGWAPGQGATCSLATPTAASRCGTXPQPWTWSTRARTRTQAAPLRKSCSSCWTSVIXARPAAPRPTSALPPLCSSTAAFVSPAPAFSSSTTKPSMKQQPMVPRGLTERALCXPEQGGLRASTATGTCRLSISTELXRELSLRMVTRAQPRLRQKGQQQGSVLCVRGSPRGQREDVXGSPMWAXTCTDQRKVCQSPRKGQQRMKMSPKWSSGRKDSKQGDSLEERKFPIWHPHQVPLMEGPTPLVQHPRLQLRPLRHLGTERATPLARSTAC”, the protein production was “failed”.
With “MAGKEFKQRIRQALNNASLRGALGRFADSYVVSREEVYAGRDFESLRQRIAAIKADAAGRYEELADRFSRAVEARGGKVFRAKDAAAAREYIYQVAKEHGVTEIVKSKSFASEEIHLNEFLQERGINPYETDLAEWILQLMPGERPSHMVMPAIHLPKEEVARVFSRYLGEPVEPDIKNMVRIARRELRKKFLTAGMGISGANIAVAETGTIVLCTNEGNARLTTTVPPVHVAIVGYEKLVPSIKDIVPILEALPRSGTAQPITSYVTMITGPVPAWRGEGEGIKELHVVLLDNGRTRMAADPVFKEALQCIRCASCTNVCPVFQLVSGQVYGYIYNGGIGSVLTAFFNSLEDAVDPQSLCIGCRRCAEVCPAKINIPDLVLKLRERVVTKQGLSSGYRIALHGIVAKPKLMHTLLRAASRLQGPVTHGQPLIRHLPLFFSNLTSGRSLPAIAKEPLRDRVKRLEARTGRPRLKAAFYSGCVIDFAYPEIGEAVYKVLGREGVQVTFPQGQACCGAPAVYAGDRETAVKLAKQNITALEEARADVVVTACPTCAVALKKDFPELLAGEPAWEERARALAKKVKDFTELVHELTGGQGKKVKQAKKSGSGAVKVTYHDSCHFKRHLGLDQVARQVLKEQPGVELVEMQESDRCCGFGGSYSIKYPEISAPILERKLKNITESGAQVVAADCPGCVLQLRGGLDQKGSSIKVKHTAEVLAALENLQGGGNSK” the protein production was “failed”.
For “MAGKKVVITIGRQYGSGGADTGRRLAEELGFGFYDKNILRMNSDESGIKESYFHLADEKAGNKLLYKIISSLTPEKGAPSFGSDLISADNLFRFQSEVIRKLAAEESCVIIGRCANYVLDGMEGLLRVYLYADIEVREARIREKDLYDEKEVLKNIKRIDRERRDYHRYYTGRDWQELDNYDLVINTTHIGVDGAVAVIKNYLTVMGYDLEKDFH”, the protein production was “not failed”.
For “MAGLSGAQIPDGEFTAVVYRLIRNARYAEAVQLLGGELQRSPRSRAGLSLLGYCYYRLQEFALAAECYEQLGQLHPELEQYRLYQAQALYKACLYAEATRVAFLLLDNPAYHSRVLHLQAAIKYSEGDLPGSRSLVEQLPSREGGEESGGENETDGQINLGCLLYKEGQYEAACSKFFAALQASGYQPDLSYNLALAYYSSRQYASALKHIAEIIERGIRQHPELGVGMTTEGIDVRSVGNTLVLHQTALVEAFNLKAAIEYQLRNYEAAQEALTDMPPRAEEELDPVTLHNQALMNMDARPTEGFEKLQFLLQQNPFPPETFGNLLLLYCKYEYFDLAADVLAENAHLIYKFLTPYLYDFLDAVITCQTAPEEAFIKLDGLAGMLTEVLRKLTIQVQEARHNRDDEAIKKAVNEYDETMEKYIPVLMAQAKIYWNLENYPMVEKIFRKSVEFCNDHDVWKLNVAHVLFMQENKYKEAIGFYEPIVKKHYDNILNVSAIVLANLCVSYIMTSQNEEAEELMRKIEKEEEQLSYDDPDKKMYHLCIVNLVIGTLYCAKGNYDFGISRVIKSLEPYNKKLGTDTWYYAKRCFLSLLENMSKHTIMLRDSVIQECVQFLEHCELHGRNIPAVIEQPLEEERMHVGKNTVTYESRQLKALIYEIIGWNI”, the protein production was “failed”.
For “MAGLVQKFKQMWTPPEDEYDYDFEEMDMDDEEVMDEISSSSYEEEEAYQEPQRESRRSSAPQSGNKVVNIHAAAQLQVVLFKPERFGDETRSVADELIKMHTVVLNLENTSKDVSRRILDFLSGVAYANNGKIKRVSTATFIITPYNVDLTGDDLMDEIESSSMYL”, the protein production was “failed”.
With “MAGSSTSSSEACTDPYLRCAFNGAALTALGISHSALLAHSPQGCEYLVNNAFASQECDYMETMTLCTKLCVDEIVHGGEDILARTIREVKDLPISALFVLSACGPEIVGDDIVGVCEALQPEVKFRLVPIESAGFRGSQYDGIDIAMDTILKKLVKDDVEKIPGSVCLVAPHANANPTWPADLAWVKQVLFRMGIKVVATLTHRTPIAEIENIASAETSLLLSHDAGQKAADYLSATFGIEQVCKGIPLPIGMTNTQRWLTALGDRFDILKTAEEIVAEGERMVMATCRRKWPMARFMYRTPAAIVADATVGIPLVRFVTEEMEMTPELVALYTSHRSVWELLEGELKSLGLNPKVVYGTDVYKTRKSLQEVRPRVVFGSTIERHASEGLPVAYVVEVVRMMRQFRMINREYFGYTGILNLLECVQNEWVMGWRSKERRYEAKW” the protein production was “failed”.
With “MAHGMPTQGKVTISVDEYSSNPTQALTHYNINQSRFQPPHVHMVDPISYDTPKPGGHTRFVCVSDTHSRTDGIQMPYGDVLLHTGDFTELGLPSEVKKFNDWLGSLPYEFKVVIAGNHELTFDKDFMTELVKQDYYRFPSVSKLKPKDFDNVQSLLTNCVYLQDSDVTVKGFRIYGTPWTPWFNGWGFNLPRGQSLLDKWNLIPEGVDILMTHGPPLGFRDWVPKELQRVGCVELLNTVQRRVRPKLHVFGGIHEGYGIMTDGYTTFINASTCTVSFQPTNPPIVFDLPNPTSS” the protein production was “failed”.
With “MAHHHHHHMADQNPDLKVEEALKGADIKLLLIDFDGTLFVDKDIKVPSENIDAIKEAIEKGYMVSICTGRSKVGILSAFGEENLKKMNFYGMPGVYINGTIVYDQIGYTLLDETIETDVYAELISYLVEKNLVNQTIFHRGESNYVTEDNKYADFLQKMYSENRSIIIRHNEMLKYRTMNKLMIVLDPSESKTVIGNLKQKFKNKLTIFTTYNGHAEVTKLGHDKYTGINYLLKHYNISNDQVLVVGDAENDIAMLSNFKYSFAVANATDSAKSHAKCVLPVSHREGAVAYLLKKVFDLKK” the protein production was “not failed”.
With “MAHLLEKTRKITSILKRSEEQLQDELPYNAITRQLADIIHCNACIINSKGRLLGYFMRYKTNTDRVEQFFQTKIFPDDYVQGANMIYETEANLPVEHDMSIFPIESRDDFPDGLTTIAPIHVSGIRLGSLIIWRNDKKFEDEDLVLVEIASTVVGIQLLNFQREEDEKNIRRRTAVTMAVNTLSYSELRAVSAILGELNGNEGKLTASVIADRIGITRSVIVNALRKLESAGIIESRSLGMKGTYLKVLISDIFEEVKKRDY” the protein production was “failed”.
With “MAHRRDRGLLGIWGDLVLTSVFIAAVSLALFWMAAFTLWWQMHAWRTPEVLASTRFSRPDGGEGLSFSLLLPARHEQAVLDHTIQRLLESSHTDFEIIVIVGHDDPETTEVARKAAARDERVRVVVDTHEKKNKPKAMNTALPHCRGDVVGVFDAEDQVHPELLAHVDHAFRSTGADVVQGGVQLINFNSSWYSLRNCLEYFFWFRSRLHLHAQKGFIPLGGNTVFVRTDVLKEADGWDPDCLAEDCDLGVRLSSVGKKVVVAYDSDMVTREETPGSLMSLLKQRTRWNQGFLQVYRKKDWKQLPGFGQRLLARYTLMTPFLQAISGVIIPLNAAVALFLDVPVGIAFITFLPAVTAFVTFVFEVVGLHDFGKQYGLRVRSVHYLKLIVGGPFYQVLLAGAAIRAVWREQRGRNDWELTSHVGAHLTEVIREDVPA” the protein production was “failed”.
In the case of “MAIGIAANRLELLQIADAVAREKGIEKEVVIEAIEDALQKAARARYGAEHDIRVKIDPKTGETTQKRVIEVVSDDAELEGEIGKMPFSIAKRTWRDAEIGKVYEEVLPPFEIGRVQTQMARQVVMHKVREAERERQYDEYKDRVGEIVNGSVKRVEYGNVIVDLGRGEGIMRRDQSIPRENFNVGDRIRAYIYDVRRETKGPQIMLSRAHGGFMAKLFAQEVPEVYDGVIEIRAVARDPGSRAKMAVISNDGSIDPVGACVGMRGSRVQAVVAELQGEKIDIIQWSEDEATFIVNALAPAEVSKVVMDEEDERVEVVVPDEQLSLAIGRRGQNVRLASQLTGWQIDIMTESQESERRQREFAERTALFQEALDVDEVIAQLLVTEGFAAVEDVAYVEPHEIASIEGFDEETAEELQTRAREFLEKEAAELDAKRKALGVEDELLTIEGVTLAMAVALGEGDVKSIEDLAGLVPDDMRGWFENKGGERVREPGILESFNLSPEDAEALIMRARIAMGWVEAPPEPEPEPEFEEESSAEGDVVAEAEEEA”, the protein production is reported as “failed”.
In the case of “MAIPGNMWIYDDGGALIKGGCDVADREFSIEFKGFHHNLSIPTDHATGKPTGTRQHSPMIIVKEFDYSSPYLYKAVATGQNLKSAEIKWYKISDAGQEVEYFNMLLEGVRIVSISPTMASPEDKNNNHLESVELRYEKITWKHCDGNIIFTDAWNERQTA”, the protein production is reported as “not failed”.
For “MAIPSGATGKEPFLPRTLTVLREGYDGGTFFKDLAAGLTVGIVALPLAMAFAIASGTTPERGLFTAIVAGFLISLLGGSRYQIGGPTGAFVIIIFNVIMKHGYDGLVVTTLLAGAMLLVFGLCRFGALIKYIPYPVTTGFTAGIAVLIFSQQVKDFLGLSMQSVPPDFFEKWQAYIHNAATFDPATCGIAFLALGAIILTRKTIPRIPGPVVGVVLASLTVWALGLDVETIGSRFGGIPTELPTFTLPTVTLERVRQLLPDAMTIALLAGIESLLSCVVADGMTGDKHNSNVELAAQGAANIASVMFGGIPATGAIARTVTNIRSGGRTPVAGMIHAAVLVGFILYLAPLASFIPLASLAAVLMVVAWDMSEMHKFLRLLHAPKSDVLVMCLTFALTVVIDLTVAVYVGVMLASLLFMRRMSEVTQICTCLDGEATKVQGRETAELDVPEGVKVYEIDGPFFFGVADRFQNVLAALDRQPEVFILRMRKVSTLDSTAVNALEVFWRKCRSDGTQLLLSGVRETMRTTLRRMGTLSLIGEGNICENIDAALARAGQVLAERREAEDRPQ”, the protein production was “failed”.
With “MAISVIMSVYNERPEQVQQAVDSILKQTYLPREFVIVLDNPERSDLKDLLMDYDCRVEMIKLVCNPENLGLAASLNKAIELASSELIARMDADDISVTNRLEVELEALKTRDLDLISGNITYLDEQDEVVGEKSAIPEAEPLIQKILPYGSTIIHPTVLMRKTAVQQVGGYRLLPTAEDYDLWLRLLANGFKIGSINRRVLNYRLRGNSMTSDAWKTYLVSRYIQQLYAERKRTGADSFGRGMSALTDKINDVRAQSTFNRGQKYFTMAMASMRKRKLGQALAALVRAMVTSPDNCYYVINYLRLRTIWSVNGRRYRQQPSD” the protein production was “failed”.
With “MAIVLLVLHVCTGLRGSPVSGRVRMAVDSGIYLAPCSNNDAQEHLKRTVINGVDRDDYGQYTNVGFGDSVSIWGVKGGNESHWQDIDAGDYLFFYTGDETYSQVAEVLATDQNEGLAEHLWPGFEDTWEFIIYLNEPIPVNIDSNEIADYAGYKQNYILGFQSLRGSAVDEINDEYGSIEGYINANRTDGNHIQTSGGSQDPDEGDDSVVDEVLDEADRDEEAYANIARQLEEVGQVVFYGPPGTGKTYNAQQFARWWLHNLQSEPRESQVRSVTFHPSYTYEDFIEGLTANATENSVSYDIKPGKFKAICEDARVAYQETGPNEEPPRYVLLIDEINRGNLAQIFGETITLLEEDKRGTLHVDLAHSGGSFTIPPNLYVIGTMNTADRSVALVDAALRRRFRFIDFPPDYGVARSRFGFDTEYDLTSAARGERSDLEQLQALSIQAVEQLNETIIELPDLGKGKQIGHSYLLVDPDDEQALVDAWRYEILPLLEEYFYGQLSRIRQELFNQNGDSLVDWEREQIKDFDPETLRESLQAIVNAGLEHHHHHH” the protein production was “failed”.
